For one substance, EC50 results are on record in article PMC7485568.

The assay concerns the target recombinant human C2. The assay is described as follows: ECL_MSD. The settings on record: pH 6.0; 0.2 mol/L citric acid, 0.2 mol/L sodium citrate; 150 mmol/L NaCl.

For the substance ARGX-117, the EC50 turned out to be 32.2 µg/mL.
